Laboratory results from article PMC7452893 (Nature Communications, 2020).

Tests used:
Details in all cases: both partners purified
[1] = target: SARS-CoV-2 spike N-terminal domain (NTD) (SARS-CoV-2, Wuhan-Hu-1 (QHD43416), UniProt P0DTC2); assay: ELISA; direct ELISA; plates coated with 2 μg/ml recombinant spike, S1, RBD or NTD; scFv-Fc detected with AP-conjugated anti-human IgG; specificity panel (Fig. 1c)
[2] = target: T1, SARS-CoV-2 spike S1 subunit (SARS-CoV-2, Wuhan-Hu-1 (QHD43416), UniProt P0DTC2); assay: as above
T1 construct: also called S1 domain

[3] = target: T1, SARS-CoV-2 spike S1 subunit; assay: ELISA; direct ELISA; S1 as coating antigen (2 μg/ml), antibody diluted in series; apparent KD (Fig. 1d)

Binder | binding result [1] | binding result [2] | Kd [3] [nM]
MD17 (antibody, V domains shown, scFv-Fc format; also called MD17 scFv-Fc) VH: EVQLLESGGGLVQPGGSLRLSCSASGFTFSTYVMNWVRQAPGKGLEHVSGISSDGGITYYADSVKGRFTISRDNSKNTLYLQMSSLRVEDTAVYYCVKDQDSSSWYDAFDIWGQGTMVTVSS VL: DIVMTQSPSSLSASVGDRVTITCRASQSISNYLNWYQQKLGKAPKLLTYAASRLQSGVPSRFSASGSGTEFTLTISSLQPEDFATYYCQQSYTTPLTFGGGTKLEIK | no binding |  | 
MD29 (antibody, V domains shown, scFv-Fc format; also called MD29 scFv-Fc) VH: QMQLVQSGGGLVQPGGSLRLSCSASGFTFSTYVMNWVRQAPGKGPEHVSGISSDGGITYYADSVKGRFTISRDNSKNTLYLQMSSLRVEDTAVYYCVKDQDSSSWYDAFDIWGQGTMVTVSS VL: NIRLTQSPSSLSASVGDRVTITCRATQSISSYLNWYQQKPGKAPNLLIYAASSLQSGVPSRFSGSGSGTDFTLTISSLQPEDFATYYCHQTYTSPYTFGQGTKLEIK | no binding |  | 
MD62 (antibody, V domains shown, scFv-Fc format; also called MD62 scFv-Fc) VH: EVQLVQSGGGLIQPGGSLRLSCAASGVTVSSNYMTWVRQAPGKGLEWVSLIYSGGSTYYADSVKGRFTISRDNSKNTLYLQMNSLRAEDTAVYYCARDLQYYGMDVWGQGTMVTVSS VL: AIRMTQSPSSVSASVGDRVTITCRASQDIGSWLGWYQQKPGKAPKLLIYAASSLAGGVPSRFSGSGSGTDFTLTISSLQPEDFATYYCQQANSFPLTFGGGTKLEIK | no binding |  | 
MD47 (antibody, V domains shown, scFv-Fc format; also called MD47 scFv-Fc) V domain 1: QMQLVQSGGGLVQPGGSLRLSCAASGFTFSSYAMSWVRQAPGKGLEWVSAISSGGSTYYADSVKGRFTISRDNSKNTLYLQMNSLRAEDTAVYYCAKDLVTAPSYEAFDIWGQGTMITVSS V domain 2: NFMLTQPPSVSVAPGKTARITCGGNNIGSKSVHWYQQKPGQAPVLVIYYDSDRPSGIPERFSGSNSGNTATLTISRVEAGDEADYYCQVWDSSSHHHVVFGGGTKGTVL | no binding | binds | 
MD45 (antibody, V domains shown, scFv-Fc format; also called MD45 scFv-Fc) VH: EVQLVQSGGGLVQPGGSLRLSCAASGFTVSSNYMTWVRQAPGKGLEWVSVIYSGGSTFYADSVKGRFTISRHNSKNTLYLQMNSLRAEDTAVYYCARDLSVRGGMDVWGQGTMVTVSS VL: EIVLTQSPGTLSLSPGERATLSCRASQSVNSSYLAWYQQKPGQAPRLLIYGASNRATGIPDRFSGSGSGTDFTLTISRLEPEDFAVYYCQQYGVSPEIIFGQGTRLEIK | no binding |  | 12.7
MD67 (antibody, V domains shown, scFv-Fc format; also called MD67 scFv-Fc) VH: EVQLVESGGGLVQPGGSLRLSCAASGFTVSSNYMTWVRQAPGKGLEWVSVIYSGGSTFYADSVKGRFTISRHNSKNTLYLQMNSLRAEDTAVYYCARDLSVRGGMDVWGQGTTVTVSS VL: not shown | no binding |  | 
MD63 (antibody, V domains shown, scFv-Fc format; also called MD63 scFv-Fc) VH: QVTLKESGGGVVQPGRSLRLSCAASGFTFSSYAMHWVRQAPGKGLEHVSAISSDGGITYFADSVKGRFTISRDNSRNTLFLQMSSLRVEDTAVYYCVKDQDSNSWYDAFDIWGRGTMVTVSS VL: not shown | no binding |  | 15.6
